This is an account of results in patent publication US20240376224A1 (University of California, published 2024).

Test [1] addresses T1, c-CDCP1 Cut 3 N-terminal fragment (NTF) (human, UniProt Q9H5V8 30-369).
T1 construct: also called NTF (Cut 3)
T1 sequence: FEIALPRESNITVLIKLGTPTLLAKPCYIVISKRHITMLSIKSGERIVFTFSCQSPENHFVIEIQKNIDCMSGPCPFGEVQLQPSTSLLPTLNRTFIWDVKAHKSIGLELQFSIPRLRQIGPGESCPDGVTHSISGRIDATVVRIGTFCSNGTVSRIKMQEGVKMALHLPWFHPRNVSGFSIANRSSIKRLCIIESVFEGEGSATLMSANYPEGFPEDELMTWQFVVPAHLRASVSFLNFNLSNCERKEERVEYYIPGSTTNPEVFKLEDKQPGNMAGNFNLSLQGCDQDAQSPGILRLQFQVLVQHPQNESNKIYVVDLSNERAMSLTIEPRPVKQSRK
The test is described as follows: co-transfection of NTF and CTF plasmids (Cut 3), Ni-NTA co-purification. From the text: (§1) In the present example, CDCP1 antigen with endogenous cut sites was generated. Generation of the CDCP1 antigen proceeded by co-transfection of the two fragments on separate plasmids. One set of plasmids encoding the NTF of CDCP1, ending after the PI residue of the 3 different cut sites, was designed; and a second set of plasmids encoding the C-terminal ectodomain of CDCP1 starting at the P1′ residue of the 3 different cut sites (c-CDCP1 Cut 1, Cut 2, Cut 3), was designed (FIG. 3A). Uncleaved CDCP1 ectodomain was generated with a single plasmid encoding the entire ectodomain (fl-CDCP1). Following co-transfection of pairs of NTF and CTF plasmids, an intact cleaved CDCP1 complex was purified by Ni-NTA affinity chromatography for all of the NTF+CTF cut variants (FIG. 3B). In parallel, fl-CDCP1 and c-CDCP1 ectodomains fused to an Fc domain were generated for use in phage selection, using the same co-transfection strategy (FIG. 3H-FIG. 3L). Three pairs of NTF and CTF-Fc plasmids were made that ends or starts at the 3 different cut sites of cleaved CDCP1. An SDS-PAGE gel of fl-CDCP1-Fc and c-CDCP1-Fc (Cut 1, Cut 2, Cut 3) was run (FIG. 3I).

Test [2] concerns the target T2, c-CDCP1 Cut 1 N-terminal fragment (NTF) (human, UniProt Q9H5V8 30-365).
T2 construct: also called NTF (Cut 1)
T2 sequence: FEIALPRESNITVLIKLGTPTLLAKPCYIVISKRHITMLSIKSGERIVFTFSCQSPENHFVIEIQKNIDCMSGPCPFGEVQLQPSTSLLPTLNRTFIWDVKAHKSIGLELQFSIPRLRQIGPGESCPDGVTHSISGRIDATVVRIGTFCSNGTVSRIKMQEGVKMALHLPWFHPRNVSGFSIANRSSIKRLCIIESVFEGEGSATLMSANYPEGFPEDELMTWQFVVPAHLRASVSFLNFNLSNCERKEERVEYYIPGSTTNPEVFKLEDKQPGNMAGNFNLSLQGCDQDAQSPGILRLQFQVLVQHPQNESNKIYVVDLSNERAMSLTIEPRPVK
Put plainly: co-transfection of NTF and CTF plasmids (Cut 1), Ni-NTA co-purification.
From the text: as §1

For test [3], the target named is T3, c-CDCP1 Cut 2 N-terminal fragment (NTF) (human, UniProt Q9H5V8 30-368).
T3 construct: also called NTF (Cut 2)
T3 sequence: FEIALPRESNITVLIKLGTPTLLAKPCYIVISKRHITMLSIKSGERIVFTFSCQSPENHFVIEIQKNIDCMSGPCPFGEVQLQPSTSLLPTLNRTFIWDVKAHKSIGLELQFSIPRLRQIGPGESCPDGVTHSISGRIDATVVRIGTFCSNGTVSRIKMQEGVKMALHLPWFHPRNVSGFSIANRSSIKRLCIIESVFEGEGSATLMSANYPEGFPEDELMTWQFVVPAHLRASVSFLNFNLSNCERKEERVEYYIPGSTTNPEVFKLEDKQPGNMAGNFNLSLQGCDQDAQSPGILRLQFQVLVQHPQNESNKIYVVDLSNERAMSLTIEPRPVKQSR
Put plainly: co-transfection of NTF and CTF plasmids (Cut 2), Ni-NTA co-purification.
From the text: as §1

B1: c-CDCP1 Cut 3 C-terminal fragment (CTF) of the ectodomain (receptor)
chain: FVPGCFVCLESRTCSSNLTLTSGSKHKISFLCDDLTRLWMNVEKTISCTDHRYCQRKSYSLQVPSDILHLPVELHDFSWKLLVPKDRLSLVLVPAQKLQQHTHEKPCNTSFSYLVASAIPSQDLYFGSFCPGGSIKQIQVKQNISVTLRTFAPSFQQEASRQGLTVSFIPYFKEEGVFTVTPDTKSKVYLRTPNWDRGLPSLTSVSWNISVPRDQVACLTFFKERSGVVCQTGRAFMIIQEQRTRAEEIFSLDEDVLPKPSFHHHSFWVNISNCSPTSGKQLDLLFSVTLTPRTVDLT
notes: Tag for Ni-NTA purification not described; also called CTF (Cut 3)
B1: in test [1], the binding result is recorded as “binds”.

B2: c-CDCP1 Cut 1 C-terminal fragment (CTF) of the ectodomain (receptor)
chain: QSRKFVPGCFVCLESRTCSSNLTLTSGSKHKISFLCDDLTRLWMNVEKTISCTDHRYCQRKSYSLQVPSDILHLPVELHDFSWKLLVPKDRLSLVLVPAQKLQQHTHEKPCNTSFSYLVASAIPSQDLYFGSFCPGGSIKQIQVKQNISVTLRTFAPSFQQEASRQGLTVSFIPYFKEEGVFTVTPDTKSKVYLRTPNWDRGLPSLTSVSWNISVPRDQVACLTFFKERSGVVCQTGRAFMIIQEQRTRAEEIFSLDEDVLPKPSFHHHSFWVNISNCSPTSGKQLDLLFSVTLTPRTVDLT
notes: Tag for Ni-NTA purification not described; also called CTF (Cut 1)
With B2, the binding result in test [2] is reported as “binds”.

B3: c-CDCP1 Cut 2 C-terminal fragment (CTF) of the ectodomain (receptor)
chain: KFVPGCFVCLESRTCSSNLTLTSGSKHKISFLCDDLTRLWMNVEKTISCTDHRYCQRKSYSLQVPSDILHLPVELHDFSWKLLVPKDRLSLVLVPAQKLQQHTHEKPCNTSFSYLVASAIPSQDLYFGSFCPGGSIKQIQVKQNISVTLRTFAPSFQQEASRQGLTVSFIPYFKEEGVFTVTPDTKSKVYLRTPNWDRGLPSLTSVSWNISVPRDQVACLTFFKERSGVVCQTGRAFMIIQEQRTRAEEIFSLDEDVLPKPSFHHHSFWVNISNCSPTSGKQLDLLFSVTLTPRTVDLT
notes: Tag for Ni-NTA purification not described; also called CTF (Cut 2)
In the case of B3, the binding result in test [3] is on record as “binds”.
